Source: patent publication US10414821 (dated 2019)

Key:
PD-1 protein = PD-1 protein (UniProt Q15116 25-167); assay: blocking ELISA (PD-1/PD-L1)
[1] = target: purified recombinant PD-1 fusion protein (Sino Biological Inc, Cat #: 10377-H08H) (human, UniProt Q15116 25-170); assay: ELISA
purified recombinant PD-1 fusion protein (Sino Biological Inc, Cat #: 10377-H08H), sequence (Q15116 25-170): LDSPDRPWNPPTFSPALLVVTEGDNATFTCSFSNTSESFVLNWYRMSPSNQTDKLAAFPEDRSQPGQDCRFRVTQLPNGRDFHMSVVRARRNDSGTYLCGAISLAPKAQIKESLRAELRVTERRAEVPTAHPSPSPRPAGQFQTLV

PD-1 protein, sequence (Q15116 25-167): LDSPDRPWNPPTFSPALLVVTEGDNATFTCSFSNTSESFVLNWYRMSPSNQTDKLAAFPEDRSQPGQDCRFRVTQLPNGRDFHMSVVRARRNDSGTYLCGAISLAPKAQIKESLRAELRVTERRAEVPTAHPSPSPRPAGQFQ

- IC50 (PD-1 protein): 288 pM
- EC50 [1]: 37.1 pM
B1: BA08-1 (antibody, V domains shown)
VH: QVQLVQSGAEVKKPGASVKVSCKASGYTFTSYYMYWVRQAPGQGLEWMGGVNPSNGGTNFNEKFKSRVTITADKSTSTAYMELSSLRSEDTAVYYCARRDYRYDMGFDYWGQGTTVTVSS
VL: EIVLTQSPATLSLSPGERATISCRASKGVSTSGYSYLHWYQQKPGQAPRLLIYLASYLESGVPARFSGSGSGTDFTLTISSLEPEDFATYYCQHSRELPLTFGTGTKVEIK
